Assay results: patent US20210261648A1 (published 2021)
Residue numbers refer to the chain shown, from its start. Names may count otherwise.

T1: FcγRIIa type R extracellular domain with C-terminal His tag (human, UniProt P12318 34-217)
T1 chain: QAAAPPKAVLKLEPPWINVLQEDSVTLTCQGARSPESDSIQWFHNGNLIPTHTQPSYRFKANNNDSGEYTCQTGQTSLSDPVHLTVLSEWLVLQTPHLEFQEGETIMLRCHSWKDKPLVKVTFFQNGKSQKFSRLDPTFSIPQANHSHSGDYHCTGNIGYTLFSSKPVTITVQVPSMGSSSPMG

T2: FcγRIIb extracellular domain with C-terminal His tag (human, UniProt P31994 43-217)
T2 construct: extracellular domain; For crystallography it was expressed with kifunensine and trimmed with Endo F1; also called FcgRIIb; FcγRIIb extracellular region; not shown: His tag attached to the C terminus
T2 sequence (looked up): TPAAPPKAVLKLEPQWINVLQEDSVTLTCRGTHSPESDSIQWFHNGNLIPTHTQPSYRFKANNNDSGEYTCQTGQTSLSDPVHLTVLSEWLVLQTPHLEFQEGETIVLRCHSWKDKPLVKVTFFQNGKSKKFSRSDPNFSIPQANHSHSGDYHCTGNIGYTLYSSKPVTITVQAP

T3: FcγRIIa type H extracellular domain with C-terminal His tag (human, UniProt P12318 34-217)
T3 construct: extracellular domain; also called FcγRIIaH; FcgRIIaH; not shown: His tag attached to the C terminus
T3 sequence (looked up): T1 chain with R134H

B1: IL6R-F652/IL6R-L (antibody, human IgG1, kappa)
heavy: QVQLQESGPGLVKPSETLSLTCAVSGHSISHDHAWSWVRQPPGEGLEWIGFISYSGITNYNPSLQGRVTISRDNSKNTLYLQMNSLRAEDTAVYYCARSLARTTAMDYWGEGTLVTVSSASTKGPSVFPLAPSSKSTSGGTAALGCLVKDYFPEPVTVSWNSGALTSGVHTFPAVLQSSGLYSLSSVVTVPSSSLGTQTYICNVNHKPSNTKVDKKVEPKSCDKTHTCPPCPAPELLGGDSVFLFPPKPKDTLYISRTPEVTCVVVDVSHEDPEVKFNWYVDGVEVHNAKTKPREEQYNSTYRVVSVLTVLHQDWLNGKEYKCKVSNKALPAPIEKTISKAKGQPREPQVYTLPPSRDELTKNQVSLTCLVKGFYPSDIAVEWESNGQPENNYKTTPPVLDSDGSFFLYSKLTVDKSRWQQGNVFSCSVMHEALHYHYTQKSLSLSP
light: not shown
notes: IL6R-F11 (IL6R-G1d with M252Y/N434Y) with P238D
B2: IL6R-BP118/IL6R-L (antibody, human IgG1, kappa)
heavy: B1 heavy with Y254M, K328S, Y436N, K441E
light: not shown
notes: Alterations introduced into IL6R-B3
B3: IL6R-BP121/IL6R-L (antibody, human IgG1, kappa)
heavy: B1 heavy with Y254M, K328Q, Y436N, K441E
light: not shown
notes: as for B2
B4: IL6R-BP911/IL6R-L (antibody, human IgG1, kappa)
heavy: B1 heavy with Y254M, A332K, Y436N, K441E
light: not shown
notes: as for B2
B5: IL6R-BP106/IL6R-L (antibody, human IgG1, kappa)
heavy: B1 heavy with Y254M, H270D, Y436N, K441E
light: not shown
notes: as for B2
B6: IL6R-PD087/IL6R-L (antibody, human IgG1, kappa)
heavy: B1 heavy with G239M
light: not shown
notes: PD variant; alterations introduced into IL6R-F11
B7: IL6R-BP103/IL6R-L (antibody, human IgG1, kappa)
heavy: B1 heavy with Y254M, S269V, Y436N, K441E
light: not shown
notes: as for B2
B8: IL6R-PD081/IL6R-L (antibody, human IgG1, kappa)
heavy: B1 heavy with G239E
light: not shown
notes: as for B6
B9: IL6R-PD043/IL6R-L (antibody, human IgG1, kappa)
heavy: B1 heavy with L236Y
light: not shown
notes: as for B6
B10: IL6R-PD080/IL6R-L (antibody, human IgG1, kappa)
heavy: B1 heavy with G239D
light: not shown
notes: as for B6
B11: IL6R-PD086/IL6R-L (antibody, human IgG1, kappa)
heavy: B1 heavy with G239L
light: not shown
notes: as for B6
B12: IL6R-BP142/IL6R-L (antibody, human IgG1, kappa)
heavy: B1 heavy with Y254M, K328N, Y436N, K441E
light: not shown
notes: as for B2
B13: IL6R-BP110/IL6R-L (antibody, human IgG1, kappa)
heavy: B1 heavy with Y254M, H270N, Y436N, K441E
light: not shown
notes: as for B2

Experiments:
[1] = biological target: T1, FcγRIIa type R extracellular domain …; assay: SPR binding amount, relative to IL6R-F652/IL6R-L
[2] = biological target: T2, FcγRIIb extracellular domain with …; assay: SPR binding amount, relative to IL6R-F652/IL6R-L
[3] = biological target: T4, FcγRIa extracellular domain with C-terminal His tag (human, UniProt P12314 16-292); assay: SPR binding amount, relative to IL6R-BF648/IL6R-L
T4 construct: also called FcgRIa; not shown: His tag attached to the C terminus

[4] = biological target: T2, FcγRIIb extracellular domain with …; assay: SPR binding amount, relative to IL6R-BF648/IL6R-L
[5] = biological target: T3, FcγRIIa type H extracellular domain …; assay: SPR binding amount, relative to IL6R-BF648/IL6R-L

T4 sequence (P12314 16-292): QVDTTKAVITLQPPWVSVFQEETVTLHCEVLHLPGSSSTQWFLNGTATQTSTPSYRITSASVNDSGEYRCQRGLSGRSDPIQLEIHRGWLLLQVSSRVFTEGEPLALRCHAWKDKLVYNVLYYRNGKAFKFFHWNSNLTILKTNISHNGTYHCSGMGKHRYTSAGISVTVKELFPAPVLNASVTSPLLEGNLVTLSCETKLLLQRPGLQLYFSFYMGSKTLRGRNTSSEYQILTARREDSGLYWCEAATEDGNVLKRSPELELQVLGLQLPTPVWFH

Row | Binder | relative binding activity to FcγRIIaR (IL6R-F652/IL6R-L = 100) [1] | relative binding activity to FcγRIIb (IL6R-F652/IL6R-L = 100) [2] | relative binding activity (IL6R-BF648/IL6R-L = 100) [3] | relative binding activity (IL6R-BF648/IL6R-L = 100) [4] | relative binding activity (IL6R-BF648/IL6R-L = 100) [5]
1 | B1 | 100 | 100 | – | – | –
2 | B2 | – | – | 101 | 104 | 128
3 | B3 | – | – | 118 | 113 | 135
4 | B4 | – | – | 52 | 119 | 108
5 | B5 | – | – | 127 | 116 | 110
6 | B6 | 196 | 109 | – | – | –
7 | B7 | – | – | 56 | 107 | 69
8 | B8 | 117 | 101 | – | – | –
9 | B9 | 175 | 112 | – | – | –
10 | B10 | 222 | 127 | – | – | –
11 | B11 | 268 | 112 | – | – | –
12 | B12 | – | – | 98 | 106 | 97
13 | B13 | – | – | 105 | 101 | 127
